Experimental data taken from patent US20040146964.

System: T1, C. elegans HIF-α homologue, wild type
T1 sequence: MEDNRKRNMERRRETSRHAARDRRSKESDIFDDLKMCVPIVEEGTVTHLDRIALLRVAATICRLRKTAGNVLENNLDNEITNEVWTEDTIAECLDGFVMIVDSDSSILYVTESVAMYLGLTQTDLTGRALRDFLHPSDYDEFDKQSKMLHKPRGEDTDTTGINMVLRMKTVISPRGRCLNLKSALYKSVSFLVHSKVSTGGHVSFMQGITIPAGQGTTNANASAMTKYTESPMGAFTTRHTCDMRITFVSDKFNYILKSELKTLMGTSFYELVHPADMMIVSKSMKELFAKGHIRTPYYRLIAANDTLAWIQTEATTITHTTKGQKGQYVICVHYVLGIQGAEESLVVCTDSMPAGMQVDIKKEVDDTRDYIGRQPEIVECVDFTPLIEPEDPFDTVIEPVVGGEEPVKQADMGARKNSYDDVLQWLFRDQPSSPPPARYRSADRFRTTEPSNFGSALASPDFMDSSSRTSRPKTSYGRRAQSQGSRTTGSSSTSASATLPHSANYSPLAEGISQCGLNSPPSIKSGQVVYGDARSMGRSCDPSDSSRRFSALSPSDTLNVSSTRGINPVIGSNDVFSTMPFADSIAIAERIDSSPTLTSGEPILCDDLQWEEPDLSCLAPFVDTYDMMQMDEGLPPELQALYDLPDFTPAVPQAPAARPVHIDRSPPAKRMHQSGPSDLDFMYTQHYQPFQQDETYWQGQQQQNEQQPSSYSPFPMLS

gene product of the predicted ORF T20B3.7
modification of HIF-1 read by HA.VHL-1 capture: had no activity in these assays
